# Columns and labels:
# [1] = biological target: T1, PIN149 fully human Id protein (HV3-23 / KV4-1) (human); assay: SPR (BIACORE 2000); mAb captured on anti-mouse surface, fully human Id protein as analyte, 25 C
# T1 construct: Recombinant patient-derived idiotype immunoglobulin used as antigen; also called PIN149 Id protein; Immunogen (for 3C9, 6C9, 10H7, 15E1); not shown: human immunoglobulin heavy chain constant region, isotype G3 (HCG3); human immunoglobulin kappa light chain constant region (KC)
# T1 sequence (VH, as listed by the source, chain 1 of 2): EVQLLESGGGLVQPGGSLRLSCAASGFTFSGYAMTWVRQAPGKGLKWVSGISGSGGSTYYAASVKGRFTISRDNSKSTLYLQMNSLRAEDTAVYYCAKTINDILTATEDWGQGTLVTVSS
# T1 sequence (VL, as listed by the source, chain 2 of 2): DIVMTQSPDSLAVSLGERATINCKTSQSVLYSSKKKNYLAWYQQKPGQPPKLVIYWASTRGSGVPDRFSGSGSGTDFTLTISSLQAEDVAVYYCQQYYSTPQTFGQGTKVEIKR
# Experimental: (§1) Binding constants were also determined for three of the sequenced clones (3C9, 10H7, and 20H5), as well as for two additional clones (6C9 and 15E1). The association and disassociation rates were measured by surface plasmon resonance using a BIACORE 2000 machine.
# (§2) In addition, based on ELISA results, PIN185 was used as a positive control Id protein for 10H7 and 15E1 and a negative control Id protein for 3C9 and 6C9 and PIN149 was used as a non-binding Id protein for 20H5. Each mAb was captured onto an anti-mouse surface and tested for binding to the fully human Id protein. Following the mAb capture phase of the assay for the (@2 ug/ml), the fully human Id proteins were all diluted to a starting concentration of 250 nM and tested in a three fold dilution series. Each concentration was tested in duplicate. The running buffer contained PBS plus 0.005% tween-20 and 0.1 mg/ml BSA as a carrier. Binding data were collected at 25° C. […] The other data sets all fit well to a single site interaction model.
# [2] = biological target: T2, PIN185 fully human Id protein (human); assay: as above
# T2 construct: Patient-derived idiotype immunoglobulin used as control antigen in SPR
# Experimental: as §1, §2
# 591 = biological target: T3, 591; assay: ELISA
# T3 construct: H3-23 K4-1; also called PIN591
# Text: (§3) Before specificity screening, all of the clonal immunogen-positive hybridoma supernatants were re-screened on the immunogen, a non-family member Id protein, and KLH, if animals were immunized with Id protein that has been conjugated KLH. As described above, this screen identifies HC-specific clones but not mAbs against the light chain constant region. Clones identified positive to the immunogen and KLH were […]. Those found positive to the immunogen but not to the non-family member Id protein or KLH were tittered on the immunogen. In addition to normalizing for different binding affinities and concentrations, each hybridoma supernatant was titered on the fully human form of the Id protein used as the immunogen(s) for the V regions. The titer or dilution resulting in an ELISA absorbance of 2.5 to 3 OD after 30 min. incubation time was then used. Hybridoma specificity was determined by screening against available Id proteins expressing the same HV and KV or LV as well as different HV, KV and LV. The final ELISA results are expressed as follows: 0 (<0.5 OD), 1 (0.5-1.0 OD), or 4 (1-4 OD). Positive hybridoma supernatants are categorized according to specificity: anti-Id, anti-constant region (HC, KC or LC), or V region (HV, KV, LV family or family member).
# (§4) In general, the fully human Id protein or proteins containing the immunogen V regions were coated onto 96-well ELISA plates at 2.5-5 ug/mL in carbonate buffer pH 9.6 and incubated at 4° C. for up to 14 days. On the day of the ELISA, plates were brought to RT and blocked with Tris-Tween-20, pH 7.6 for 15-60 min. at RT. Following a NaCl and Triton X-100 wash, diluted hybridoma cell culture supernatants were incubated overnight at 4° C. Hybridoma supernatant dilutions ranged from 1:2 to 1:25 and were prepared in PBS with 5% BSA. Plates were washed and incubated with HRP-conjugated goat anti-mouse IgG-specific detecting antibody. A chromogenic substrate (TMB) was used to measure the amount of mouse antibody bound to each well. The reaction was stopped at or before 30 minutes with IN H2SO4 and plates were read immediately. Absorbency readings at 450 nm ranging between 0-4 OD and using Molecular Devices plate reader and SOFTMAX PRO software.
# 199 = biological target: T4, 199; assay: ELISA
# T4 construct: H3-7 K4-1; also called PIN199
# Text: as §3, §4
# 898 = biological target: T5, 898; assay: ELISA
# T5 construct: H3-15 K4-1; also called PIN898
# Text: as §3, §4
# 112 = biological target: T6, 112; assay: ELISA
# T6 construct: H4-39 K4-1; also called PIN112
# Text: as §3, §4
# [3] = biological target: T1, PIN149 fully human Id protein (HV3-23 / …); assay: ELISA
# Text: as §3, §4
# 839 = biological target: T7, 839; assay: ELISA
# T7 construct: H3-23 K4-1; also called PIN839
# Text: as §3, §4
# 204 = biological target: T8, 204; assay: ELISA
# T8 construct: H3-15 K4-1; also called PIN204
# Text: as §3, §4
# 987 = biological target: T9, 987; assay: ELISA
# T9 construct: H3-23 K4-1; also called PIN987
# Text: as §3, §4
# 628 = biological target: T10, 628; assay: ELISA
# T10 construct: fully human Id protein; also called PIN628
# T10 sequence (VH, as listed by the source, chain 1 of 2): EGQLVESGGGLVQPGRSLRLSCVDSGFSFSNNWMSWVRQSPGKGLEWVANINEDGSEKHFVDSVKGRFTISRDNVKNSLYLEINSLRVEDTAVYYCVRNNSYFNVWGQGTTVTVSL
# T10 sequence (VL, as listed by the source, chain 2 of 2): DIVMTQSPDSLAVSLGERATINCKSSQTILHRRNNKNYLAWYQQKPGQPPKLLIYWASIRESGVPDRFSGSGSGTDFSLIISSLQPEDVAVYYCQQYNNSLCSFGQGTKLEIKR
# Text: as §3, §4
# 1088 = biological target: T11, 1088; assay: ELISA
# T11 construct: H2-5 K4-1; also called PIN1088
# Text: as §3, §4
# 792 = biological target: T12, 792; assay: ELISA
# T12 construct: H1-3 K4-1; also called PIN792
# Text: as §3, §4
# 192 = biological target: T13, 192; assay: ELISA
# T13 construct: H5-51 K4-1; also called PIN192
# Text: as §3, §4
# 763 = biological target: T14, 763; assay: ELISA
# T14 construct: H4-59 K4-1; also called PIN763
# Text: as §3, §4
# 170 = biological target: T15, 170; assay: ELISA
# T15 construct: H4-34 K4-1; also called PIN170
# Text: as §3, §4
# 791 = biological target: T16, 791; assay: ELISA
# T16 construct: H3-30 K4-1; also called PIN791
# Text: as §3, §4
# 1014 = biological target: T17, 1014; assay: ELISA
# T17 construct: H3-53 K4-1; also called PIN1014
# Text: as §3, §4
# 659 = biological target: T18, 659; assay: ELISA
# T18 construct: H3-21 K4-1; also called PIN659
# Text: as §3, §4
# 179 = biological target: T19, 179; assay: ELISA
# T19 construct: H3-11 K4-1; also called PIN179
# Text: as §3, §4
# 952 = biological target: T20, 952; assay: ELISA
# T20 construct: H3-66 K4-1; also called PIN952
# Text: as §3, §4
# [4] = biological target: T2, PIN185 fully human Id protein; assay: ELISA
# Text: as §3, §4
# 1145 = biological target: T21, 1145; assay: ELISA
# T21 construct: H3-11 K4-1; also called PIN1145
# Text: as §3, §4
# 1023 = biological target: T22, 1023; assay: ELISA
# T22 construct: H4-4 K4-1; also called PIN1023
# Text: as §3, §4
# 844 = biological target: T23, 844; assay: ELISA
# T23 construct: H3-7 K4-1; also called PIN844
# Text: as §3, §4
# 1154 = biological target: T24, 1154; assay: ELISA
# T24 construct: H4-61 K4-1; also called PIN1154
# Text: as §3, §4
# 913 = biological target: T25, 913; assay: ELISA
# T25 construct: fully human Id protein; also called PIN913
# T25 sequence (heavy, as listed by the source): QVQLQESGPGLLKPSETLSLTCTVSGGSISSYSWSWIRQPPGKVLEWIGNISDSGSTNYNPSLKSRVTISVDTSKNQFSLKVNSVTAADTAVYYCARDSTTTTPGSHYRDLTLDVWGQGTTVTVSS
# Text: as §3, §4
# 626 = biological target: T26, 626; assay: ELISA
# T26 construct: H5-51 K4-1; also called PIN626
# Text: as §3, §4
# 950 = biological target: T27, 950; assay: ELISA
# T27 construct: H4-59 K4-1; also called PIN950
# Text: as §3, §4
# 529 = biological target: T28, 529; assay: ELISA
# T28 construct: H3-48 K4-1; also called PIN529
# Text: as §3, §4
# 203 = biological target: T29, 203; assay: ELISA
# T29 construct: H3-23 L1-47; also called PIN203
# Text: as §3, §4
# 128 = biological target: T30, 128; assay: ELISA
# T30 construct: H3-23 K1-27; also called PIN128
# Text: as §3, §4
# 778 = biological target: T31, 778; assay: ELISA
# T31 construct: H3-23 K3-11; also called PIN778
# Text: as §3, §4
# 232 = biological target: T32, 232; assay: ELISA
# T32 construct: H3-23 K1-6; also called PIN232
# Text: as §3, §4
# 617 = biological target: T33, 617; assay: ELISA
# T33 construct: H3-23, VL 1-44, LC printed K; also called PIN617
# Text: as §3, §4
# 522 = biological target: T34, 522; assay: ELISA
# T34 construct: H3-23 L1-40; also called PIN522
# Text: as §3, §4
# 551 = biological target: T35, 551; assay: ELISA
# T35 construct: H3-23 L1-40; also called PIN551
# Text: as §3, §4
# 571 = biological target: T36, 571; assay: ELISA
# T36 construct: H3-23 K3-11; also called PIN571
# Text: as §3, §4
# 576 = biological target: T37, 576; assay: ELISA
# T37 construct: H3-23 L1-51; also called PIN576
# Text: as §3, §4
# 834 = biological target: T38, 834; assay: ELISA
# T38 construct: H3-23 K1-5; also called PIN834
# Text: as §3, §4
# 213 = biological target: T39, 213; assay: ELISA
# T39 construct: H3-23 L1-51; also called PIN213
# Text: as §3, §4
# 352 = biological target: T40, 352; assay: ELISA
# T40 construct: H3-23 K1-39; also called PIN352
# Text: as §3, §4
# 547 = biological target: T41, 547; assay: ELISA
# T41 construct: also called PIN547
# Text: as §3, §4
# 210 = biological target: T42, 210; assay: ELISA
# T42 construct: H3-23 K3-11; also called PIN210
# Text: as §3, §4
# 850 = biological target: T43, 850; assay: ELISA
# T43 construct: H3-23 K2-30; also called PIN850
# Text: as §3, §4
# 540 = biological target: T44, 540; assay: ELISA
# T44 construct: H3-23 K3-20; also called PIN540
# Text: as §3, §4
binder,measurement,setting,value
"mAb clone 10H7 (antibody, V domains shown, Mouse hybridoma mAb, fusions 13/14 (immunogen PIN149 chimera-KLH)) VH: EVQLVESGGGLVKPGGSLKLSCTASGFTFSSYAMSWVRQSPEKRLEWVAEISSGGIHTYYSDTVTGRFSISRDNAKNSTLYLEMNSLRSEDTAIYYCARETTGTWGQGTLVTVSA VL: QIVLTQSPAIMSASPGEKVTMTCSVSSSITYMHWFRQKPGTSPKLWIYTTSNLASGVPARFSGSGSGTSYSLTISRMEAEDAATYYCQQRSRYPFTFGSGTKLEIKR",Kd,[1],0.83 nM
same,koff,[1],3.8e-05 s⁻¹
same,kon,[1],45400 M⁻¹ s⁻¹
same,Kd,[2],3 nM
same,koff,[2],9.9e-05 s⁻¹
same,kon,[2],33200 M⁻¹ s⁻¹
same,grade,591,4
same,grade,199,4
same,grade,898,4
same,grade,112,4
same,grade,[3],4
same,grade,839,4
same,grade,204,4
same,grade,987,4
same,grade,628,4
same,grade,1088,4
same,grade,792,4
same,grade,192,4
same,grade,763,4
same,grade,170,4
same,grade,791,4
same,grade,1014,4
same,grade,659,4
same,grade,179,4
same,grade,952,4
same,grade,[4],4
same,grade,1145,4
same,grade,1023,4
same,grade,844,4
same,grade,1154,4
same,grade,913,4
same,grade,626,4
same,grade,950,4
same,grade,529,4
"mAb clone 3C9 (antibody, V domains shown, Mouse hybridoma mAb, fusions 13/14 (immunogen PIN149 chimera-KLH); also called anti-IGHV3-23 monoclonal 3C9) VH: EVQLQQSGPELEKPGASVKISCKASGYSFTAYNMNWVKQNNGKSLEWIGNIDPYHGGTNYNQKFKGKATLTVDKSSSTAYMQLKSLTSEDYAVYYCARGGGDWSWFAYWGQGTLVTVSA VL: DIVMTQSHKFMSTSVGDRVSITCKASQDVNTAVAWYQQKPGQSPKVLIYWASNRHTGVPDRFTGSGSGTDYTLTISSMQAEDLALYYCHQHYSTPWTFGGGTKLEIER",Kd,[1],1.78 nM
same,koff,[1],0.000134 s⁻¹
same,kon,[1],74900 M⁻¹ s⁻¹
same,grade,591,4
same,grade,203,4
same,grade,128,4
same,grade,[3],4
same,grade,778,4
same,grade,232,4
same,grade,617,4
same,grade,522,4
same,grade,551,4
same,grade,571,4
same,grade,576,4
same,grade,834,4
same,grade,213,1
same,grade,352,4
same,grade,547,4
same,grade,210,4
same,grade,850,4
same,grade,540,4

# — patent US20070134249A1 (GENITOPE, published 2007)
